T1: APBA2_1, Q99767
T1 sequence (Q99767 563-664, limits assumed, looked up): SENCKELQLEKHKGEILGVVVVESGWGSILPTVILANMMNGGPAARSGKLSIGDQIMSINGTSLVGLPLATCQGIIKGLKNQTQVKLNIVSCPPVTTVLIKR

T2: DLG3_3, Q92796
T2 sequence (Q92796 374-475, limits assumed, looked up): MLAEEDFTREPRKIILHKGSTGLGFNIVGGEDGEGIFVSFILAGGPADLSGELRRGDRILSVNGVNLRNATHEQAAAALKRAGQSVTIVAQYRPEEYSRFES

T3: NHERF3_1, Q5T2W1
T3 sequence (Q5T2W1 4-100, limits assumed, looked up): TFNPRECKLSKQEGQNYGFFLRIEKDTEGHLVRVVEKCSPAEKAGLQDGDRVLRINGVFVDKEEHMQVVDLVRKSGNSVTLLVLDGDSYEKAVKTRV

T4: PDZD2_2, O15018
T4 sequence (O15018 329-429, limits assumed, looked up): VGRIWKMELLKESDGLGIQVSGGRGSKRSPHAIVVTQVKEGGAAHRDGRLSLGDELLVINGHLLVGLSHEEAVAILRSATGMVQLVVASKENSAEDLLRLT

T5: HTRA4, P83105
T5 sequence (P83105 378-476, limits assumed, looked up): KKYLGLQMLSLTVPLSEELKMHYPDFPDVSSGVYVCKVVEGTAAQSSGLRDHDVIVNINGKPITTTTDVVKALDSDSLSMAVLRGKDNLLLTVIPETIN

T6: TJP3_3, O95049
T6 sequence (O95049 375-456, limits assumed, looked up): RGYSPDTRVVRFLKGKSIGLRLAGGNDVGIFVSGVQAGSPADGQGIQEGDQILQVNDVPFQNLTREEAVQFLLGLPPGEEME

T7: GRIP1_7, Q9Y3R0
T7 sequence (Q9Y3R0 999-1096, limits assumed, looked up): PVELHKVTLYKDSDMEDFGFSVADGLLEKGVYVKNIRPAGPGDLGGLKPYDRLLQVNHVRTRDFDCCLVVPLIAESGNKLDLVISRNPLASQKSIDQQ

T8: DFNB31_3, Q9P202
T8 sequence (Q9P202 811-907, limits assumed, looked up): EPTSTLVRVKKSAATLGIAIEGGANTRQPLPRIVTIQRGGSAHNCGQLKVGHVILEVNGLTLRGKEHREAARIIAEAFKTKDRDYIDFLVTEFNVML


Assays:
Test in all cases: holdup assay
Parameters in all cases: key: below the threshold = too weak to quantify, mostly under pKd 3.1 to 4
Conditions in all cases: plain residues with an end cap or a label only (N-terminal biotin on a linker: ttds)
[1] = molecular target: GRIP2_3, Q9C0E4
[2] = molecular target: GOPC, Q9HD26
[3] = molecular target: LIMK2, P53671
[4] = molecular target: MAST2, Q6P0Q8
[5] = molecular target: MAGI2_3, Q86UL8
[6] = molecular target: FRMPD4, Q14CM0
[7] = molecular target: FRMPD2_1, Q68DX3
[8] = molecular target: GORASP2, Q9H8Y8
[9] = molecular target: NHERF4_1, Q86UT5-2
[10] = molecular target: T1, APBA2_1, Q99767
[11] = molecular target: T2, DLG3_3, Q92796
[12] = molecular target: SNX27, Q96L92
[13] = molecular target: DLG2_2, Q15700
[14] = molecular target: DLG4_2, P78352
[15] = molecular target: DLG4_3, P78352
[16] = molecular target: DLG4_1, P78352
[17] = molecular target: DLG1_3, Q12959
[18] = molecular target: MAGI2_5, Q86UL8
[19] = molecular target: T3, NHERF3_1, Q5T2W1
[20] = molecular target: SCRIB_2, Q14160
[21] = molecular target: T4, PDZD2_2, O15018
[22] = molecular target: T5, HTRA4, P83105
[23] = molecular target: T6, TJP3_3, O95049
[24] = molecular target: NHERF4_4, Q86UT5
[25] = molecular target: LNX1_3, Q8TBB1
[26] = molecular target: LNX1_1, Q8TBB1
[27] = molecular target: T7, GRIP1_7, Q9Y3R0
[28] = molecular target: Inadl_2, Q8NI35
[29] = molecular target: SCRIB_1, Q14160
[30] = molecular target: T8, DFNB31_3, Q9P202
[31] = molecular target: Inadl_8, Q8NI35
Sequence of Inadl_8, Q8NI35 (Q8NI35 1425-1530): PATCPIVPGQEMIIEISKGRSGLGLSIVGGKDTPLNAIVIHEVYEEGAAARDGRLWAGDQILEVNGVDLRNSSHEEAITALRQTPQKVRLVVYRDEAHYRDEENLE

Sequence of FRMPD4, Q14CM0 (Q14CM0 67-160): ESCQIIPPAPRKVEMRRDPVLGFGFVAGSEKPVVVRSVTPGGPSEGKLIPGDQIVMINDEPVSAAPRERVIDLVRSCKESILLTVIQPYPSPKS
Sequence of LNX1_3, Q8TBB1 (Q8TBB1 500-596): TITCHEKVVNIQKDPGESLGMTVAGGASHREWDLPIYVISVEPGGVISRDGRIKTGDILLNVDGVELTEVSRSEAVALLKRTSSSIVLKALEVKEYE
Sequence of LIMK2, P53671 (P53671 143-248): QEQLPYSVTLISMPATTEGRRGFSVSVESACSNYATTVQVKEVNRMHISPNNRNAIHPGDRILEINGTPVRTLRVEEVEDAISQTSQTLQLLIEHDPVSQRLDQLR
Sequence of DLG4_2, P78352 (P78352 155-259): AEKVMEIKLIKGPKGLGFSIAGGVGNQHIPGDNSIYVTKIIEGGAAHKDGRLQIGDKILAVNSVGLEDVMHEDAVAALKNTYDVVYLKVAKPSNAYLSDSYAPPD
Sequence of DLG2_2, Q15700 (Q15700 189-283): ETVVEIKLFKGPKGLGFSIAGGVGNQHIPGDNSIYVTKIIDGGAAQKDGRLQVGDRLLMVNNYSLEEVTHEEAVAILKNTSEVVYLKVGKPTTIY
Sequence of DLG4_3, P78352 (P78352 306-403): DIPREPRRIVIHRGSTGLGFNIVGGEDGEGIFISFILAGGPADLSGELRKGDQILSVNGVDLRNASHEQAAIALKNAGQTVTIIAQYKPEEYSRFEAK
Sequence of GRIP2_3, Q9C0E4 (Q9C0E4 238-339): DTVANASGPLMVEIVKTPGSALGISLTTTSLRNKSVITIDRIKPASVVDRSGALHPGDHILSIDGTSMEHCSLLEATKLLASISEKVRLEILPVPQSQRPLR
Sequence of LNX1_1, Q8TBB1 (Q8TBB1 261-371): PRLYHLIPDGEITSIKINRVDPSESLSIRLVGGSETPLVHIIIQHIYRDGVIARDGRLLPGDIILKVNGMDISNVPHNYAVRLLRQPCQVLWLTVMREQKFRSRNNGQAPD
Sequence of Inadl_2, Q8NI35 (Q8NI35 238-335): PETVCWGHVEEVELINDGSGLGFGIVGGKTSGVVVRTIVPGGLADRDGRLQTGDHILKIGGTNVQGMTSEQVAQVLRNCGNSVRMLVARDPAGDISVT
Sequence of MAST2, Q6P0Q8 (Q6P0Q8 1099-1202): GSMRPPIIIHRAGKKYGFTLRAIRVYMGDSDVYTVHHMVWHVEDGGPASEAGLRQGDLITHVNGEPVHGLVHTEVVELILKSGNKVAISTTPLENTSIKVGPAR
Sequence of SCRIB_1, Q14160 (Q14160 718-814): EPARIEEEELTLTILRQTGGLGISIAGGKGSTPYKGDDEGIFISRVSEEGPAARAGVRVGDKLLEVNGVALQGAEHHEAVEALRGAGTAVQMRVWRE
Sequence of NHERF4_4, Q86UT5 (Q86UT5 464-550): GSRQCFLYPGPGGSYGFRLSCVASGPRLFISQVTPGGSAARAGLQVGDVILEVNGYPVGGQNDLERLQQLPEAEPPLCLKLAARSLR
Sequence of MAGI2_5, Q86UL8 (Q86UL8 915-1017): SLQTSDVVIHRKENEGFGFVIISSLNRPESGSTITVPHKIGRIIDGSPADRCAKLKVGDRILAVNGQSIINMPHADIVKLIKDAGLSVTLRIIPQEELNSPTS
Sequence of FRMPD2_1, Q68DX3 (Q68DX3 770-861): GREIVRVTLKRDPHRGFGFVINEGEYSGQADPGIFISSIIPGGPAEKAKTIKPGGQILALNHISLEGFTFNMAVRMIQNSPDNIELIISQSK
Sequence of MAGI2_3, Q86UL8 (Q86UL8 600-682): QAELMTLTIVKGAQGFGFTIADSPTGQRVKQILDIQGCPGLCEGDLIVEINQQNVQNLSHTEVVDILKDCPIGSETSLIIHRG
Sequence of DLG1_3, Q12959 (Q12959 457-571): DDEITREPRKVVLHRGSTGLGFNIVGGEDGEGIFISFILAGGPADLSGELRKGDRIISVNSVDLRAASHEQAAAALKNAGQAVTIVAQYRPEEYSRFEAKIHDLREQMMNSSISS
Sequence of NHERF4_1, Q86UT5-2 (Q86UT5 other isoform, or with tags, fused parts or gaps): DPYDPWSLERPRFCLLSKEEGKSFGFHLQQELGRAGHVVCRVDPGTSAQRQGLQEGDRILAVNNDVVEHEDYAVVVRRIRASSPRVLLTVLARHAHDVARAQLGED
Sequence of SCRIB_2, Q14160 (Q14160 857-960): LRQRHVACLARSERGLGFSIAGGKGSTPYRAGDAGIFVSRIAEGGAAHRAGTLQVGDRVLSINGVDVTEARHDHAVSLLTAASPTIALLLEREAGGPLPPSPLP
Sequence of DLG4_1, P78352 (P78352 62-152): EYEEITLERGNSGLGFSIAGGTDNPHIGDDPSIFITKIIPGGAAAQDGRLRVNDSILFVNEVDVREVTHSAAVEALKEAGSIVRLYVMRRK

| Binder | pKd [1] | pKd [2] | pKd [3] | pKd [4] | pKd [5] | pKd [6] | pKd [7] | pKd [8] | pKd [9] | pKd [10] | pKd [11] | pKd [12] | pKd [13] | pKd [14] | pKd [15] | pKd [16] | pKd [17] | pKd [18] | pKd [19] | pKd [20] | also measured |
| --- | --- | --- | --- | --- | --- | --- | --- | --- | --- | --- | --- | --- | --- | --- | --- | --- | --- | --- | --- | --- | --- |
| CNTVTVETVV [MAS1, P04201] | below the threshold | below the threshold | 3.7 | 3.92 | 3.63 | below the threshold | below the threshold | below the threshold | below the threshold | below the threshold | below the threshold | 4.57 | 4.19 | 4.45 | below the threshold | 3.98 | below the threshold | 3.95 | 3.74 | 3.47 | pKd [21]: 3.59; pKd [22]: below the threshold; pKd [23]: 3.7; pKd [24]: below the threshold; pKd [25]: below the threshold; pKd [26]: 3.52; pKd [27]: below the threshold; pKd [28]: below the threshold; pKd [29]: below the threshold; pKd [30]: below the threshold; pKd [31]: below the threshold |
| QPGTPTRTAV [MAP2K2, P36507] | below the threshold | below the threshold | below the threshold | 4.34 | 3.6 | below the threshold | below the threshold | below the threshold | 3.52 | below the threshold | below the threshold | below the threshold | 3.87 | 4.12 | below the threshold | below the threshold | below the threshold | 3.59 | below the threshold | below the threshold | pKd [21]: 3.79; pKd [22]: below the threshold; pKd [23]: 3.57; pKd [24]: below the threshold; pKd [25]: 3.67; pKd [26]: 3.6; pKd [27]: below the threshold; pKd [28]: below the threshold; pKd [29]: below the threshold; pKd [30]: below the threshold; pKd [31]: 3.78 |
| NYWPGKETQL [SLCO1C1, Q9NYB5] | below the threshold | 4.32 | below the threshold | 6.05 | below the threshold | 4.35 | 4.05 | 3.98 | 4.04 | below the threshold | 4.25 | 5.24 | 4.9 | 4.78 | 4.18 | 4.29 | 5.02 | 3.87 | 5.4 | 4.24 | pKd [21]: below the threshold; pKd [22]: below the threshold; pKd [23]: below the threshold; pKd [24]: below the threshold; pKd [25]: below the threshold; pKd [26]: below the threshold; pKd [27]: below the threshold; pKd [28]: below the threshold; pKd [29]: 5.23; pKd [30]: below the threshold; pKd [31]: below the threshold |
| DEDQHTQITKV [PTEN, P60484] | 3.56 | 4.24 | below the threshold | 5.24 | 4.64 | below the threshold | below the threshold | 3.82 | 3.51 | below the threshold | 3.71 | 4.89 | 3.55 | 3.67 | 3.56 | 3.82 | 3.71 | 4.15 | 4.03 | 3.73 | pKd [21]: 3.71; pKd [22]: 3.62; pKd [23]: below the threshold; pKd [24]: below the threshold; pKd [25]: below the threshold; pKd [26]: below the threshold; pKd [27]: below the threshold; pKd [28]: below the threshold; pKd [29]: 4.83; pKd [30]: 3.71; pKd [31]: 4.46 |
| RRVRKLPSTTL [RPS6KA1, Q15418] | below the threshold | 4.96 | below the threshold | 5.37 | 3.63 | below the threshold | below the threshold | 3.59 | 3.57 | below the threshold | below the threshold | 3.5 | below the threshold | below the threshold | below the threshold | 3.68 | 3.63 | below the threshold | 4.03 | below the threshold | pKd [21]: 3.55; pKd [22]: 3.71; pKd [23]: 3.59; pKd [24]: 3.49; pKd [25]: 3.66; pKd [26]: 3.76; pKd [27]: 3.85; pKd [28]: below the threshold; pKd [29]: 3.48; pKd [30]: 4.14; pKd [31]: below the threshold |

Source: article PMC9482650, “Quantitative fragmentomics allow affinity mapping of interactomes” (Nature Communications, 2022)
